Assay results published in patent US20200190201A1.

What was measured:
[1] = biological target: human TrkC (full-length TrkC receptor) (human) (UniProt Q16288); experiment: flow cytometry on HEK293 cells stably expressing TrkC-FL, background controls
[2] = biological target: rat TrkC (on rat spiral ganglion neurons) (rat) (UniProt Q03351); experiment: cell-based or functional assay
[3] = biological target: human TrkC (full-length TrkC receptor) (human) (UniProt Q16288); experiment: cell-based or functional assay
[4] = biological target: rat TrkB (on rat spiral ganglion neurons) (rat) (UniProt Q63604); experiment: cell-based or functional assay
Sequence of UniProt Q63604 (Q63604 32-821): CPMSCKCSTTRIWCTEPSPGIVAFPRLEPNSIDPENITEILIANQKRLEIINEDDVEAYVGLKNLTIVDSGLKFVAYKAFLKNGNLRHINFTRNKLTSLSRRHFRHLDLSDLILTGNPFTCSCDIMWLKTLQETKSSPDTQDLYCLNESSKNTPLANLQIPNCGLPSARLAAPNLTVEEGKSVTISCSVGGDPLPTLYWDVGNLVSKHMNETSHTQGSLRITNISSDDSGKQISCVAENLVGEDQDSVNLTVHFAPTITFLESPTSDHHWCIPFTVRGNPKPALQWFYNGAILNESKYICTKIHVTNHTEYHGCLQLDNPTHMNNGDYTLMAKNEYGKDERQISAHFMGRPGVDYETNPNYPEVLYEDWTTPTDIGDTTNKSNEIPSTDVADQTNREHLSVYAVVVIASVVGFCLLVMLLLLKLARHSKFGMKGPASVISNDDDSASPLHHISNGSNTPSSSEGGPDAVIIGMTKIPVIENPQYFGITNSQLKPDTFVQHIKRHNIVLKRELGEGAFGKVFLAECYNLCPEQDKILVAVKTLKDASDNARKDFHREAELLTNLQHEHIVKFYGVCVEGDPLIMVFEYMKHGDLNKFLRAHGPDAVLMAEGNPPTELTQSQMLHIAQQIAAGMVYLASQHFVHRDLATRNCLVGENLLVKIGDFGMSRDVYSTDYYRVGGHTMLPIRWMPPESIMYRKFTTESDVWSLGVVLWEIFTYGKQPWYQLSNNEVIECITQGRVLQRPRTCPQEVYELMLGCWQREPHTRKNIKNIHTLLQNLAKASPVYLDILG

[5] = biological target: human TrkB (human) (UniProt Q16620); experiment: cell-based or functional assay
Sequence of UniProt Q16620 (Q16620 32-822): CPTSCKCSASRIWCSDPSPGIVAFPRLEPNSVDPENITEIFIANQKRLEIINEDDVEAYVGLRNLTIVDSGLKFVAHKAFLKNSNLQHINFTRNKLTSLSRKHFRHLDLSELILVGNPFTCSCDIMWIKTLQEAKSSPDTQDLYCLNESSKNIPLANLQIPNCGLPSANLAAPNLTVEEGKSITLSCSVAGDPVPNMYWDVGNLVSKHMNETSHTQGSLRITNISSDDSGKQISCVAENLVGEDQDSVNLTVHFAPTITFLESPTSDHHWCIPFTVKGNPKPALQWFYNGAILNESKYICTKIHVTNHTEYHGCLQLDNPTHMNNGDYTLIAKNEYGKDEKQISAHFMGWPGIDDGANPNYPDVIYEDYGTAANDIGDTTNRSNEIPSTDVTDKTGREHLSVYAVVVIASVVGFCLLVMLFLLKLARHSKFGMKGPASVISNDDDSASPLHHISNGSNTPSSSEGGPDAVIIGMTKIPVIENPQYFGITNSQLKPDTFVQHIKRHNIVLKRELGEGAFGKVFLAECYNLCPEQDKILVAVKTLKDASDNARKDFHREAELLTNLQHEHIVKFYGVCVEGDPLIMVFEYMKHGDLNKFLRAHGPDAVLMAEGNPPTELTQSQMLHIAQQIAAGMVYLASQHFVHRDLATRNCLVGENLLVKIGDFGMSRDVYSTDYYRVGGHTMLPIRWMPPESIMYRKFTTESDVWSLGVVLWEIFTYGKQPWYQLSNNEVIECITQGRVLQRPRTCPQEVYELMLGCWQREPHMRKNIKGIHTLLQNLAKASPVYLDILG

Sequence of UniProt Q16288 (Q16288 32-839): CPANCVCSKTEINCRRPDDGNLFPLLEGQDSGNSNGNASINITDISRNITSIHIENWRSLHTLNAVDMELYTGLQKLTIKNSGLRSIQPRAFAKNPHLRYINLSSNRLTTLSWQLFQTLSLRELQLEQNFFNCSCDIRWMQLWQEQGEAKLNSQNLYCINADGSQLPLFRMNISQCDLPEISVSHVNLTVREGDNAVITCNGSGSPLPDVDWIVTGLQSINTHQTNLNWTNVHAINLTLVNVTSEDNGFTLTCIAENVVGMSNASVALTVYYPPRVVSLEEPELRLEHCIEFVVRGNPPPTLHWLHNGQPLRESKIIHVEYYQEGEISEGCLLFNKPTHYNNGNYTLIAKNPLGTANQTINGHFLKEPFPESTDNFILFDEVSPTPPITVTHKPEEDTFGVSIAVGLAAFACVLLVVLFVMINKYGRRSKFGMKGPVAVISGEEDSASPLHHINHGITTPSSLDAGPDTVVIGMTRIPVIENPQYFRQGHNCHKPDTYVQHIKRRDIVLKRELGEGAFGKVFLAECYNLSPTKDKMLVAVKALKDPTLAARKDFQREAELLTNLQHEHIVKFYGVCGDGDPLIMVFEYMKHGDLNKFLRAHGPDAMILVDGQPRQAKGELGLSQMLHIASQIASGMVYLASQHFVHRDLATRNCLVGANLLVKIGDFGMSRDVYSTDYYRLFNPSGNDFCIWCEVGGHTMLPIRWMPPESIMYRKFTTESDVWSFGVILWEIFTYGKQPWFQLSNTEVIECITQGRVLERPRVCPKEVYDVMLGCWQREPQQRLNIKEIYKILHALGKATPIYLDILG
Sequence of UniProt Q03351 (Q03351 32-864): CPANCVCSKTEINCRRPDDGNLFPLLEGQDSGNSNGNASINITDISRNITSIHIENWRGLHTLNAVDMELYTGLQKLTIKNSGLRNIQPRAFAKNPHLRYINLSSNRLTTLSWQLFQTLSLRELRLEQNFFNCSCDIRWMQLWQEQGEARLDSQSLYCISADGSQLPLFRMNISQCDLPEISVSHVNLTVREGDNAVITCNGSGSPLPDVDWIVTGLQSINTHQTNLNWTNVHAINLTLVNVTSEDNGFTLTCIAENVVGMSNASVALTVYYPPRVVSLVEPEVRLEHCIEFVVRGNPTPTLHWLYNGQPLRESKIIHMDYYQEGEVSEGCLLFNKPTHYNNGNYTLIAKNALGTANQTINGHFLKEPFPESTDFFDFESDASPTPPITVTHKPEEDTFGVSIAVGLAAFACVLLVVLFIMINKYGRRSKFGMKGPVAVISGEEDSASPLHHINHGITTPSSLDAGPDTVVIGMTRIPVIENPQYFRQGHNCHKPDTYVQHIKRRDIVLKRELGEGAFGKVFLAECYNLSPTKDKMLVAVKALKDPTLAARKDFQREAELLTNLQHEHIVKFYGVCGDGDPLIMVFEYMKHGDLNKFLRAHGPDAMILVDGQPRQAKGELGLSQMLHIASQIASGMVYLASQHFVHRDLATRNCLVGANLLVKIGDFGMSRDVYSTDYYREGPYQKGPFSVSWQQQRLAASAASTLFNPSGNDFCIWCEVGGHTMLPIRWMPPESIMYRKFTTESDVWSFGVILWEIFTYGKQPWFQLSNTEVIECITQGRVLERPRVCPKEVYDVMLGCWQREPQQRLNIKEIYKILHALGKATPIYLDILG

“control mIgG (irrelevant mouse IgG, isotype-matched controls) (antibody)” was tested, and the mean channel fluorescence (mean channel fluorescence) [1] was 10.

B1: neurotrophin-3 (NT-3) (ligand)
chain: YAEHKSHRGEYSVCDSESLWVTDKSSAIDIRGHQVTVLGEIKTGNSPVKQYFYETRCKEARPVKNGCRGIDDKHWNSQCKTSQTYVRALTSENNKLVGWRWIRIDTSCVCALSRKIGRT
With B1 the surviving rat spiral ganglion neurons per well, 4 days in culture [2] was 10 to 20 neurons/well and the EC50 of p-ERK response in 3T3 cells expressing human TrkC (AlphaLisa) [3] was 0.3 nM.

B2: brain-derived neurotrophic factor (BDNF) (ligand, UniProt P23560 129-247, looked up)
chain: HSDPARRGELSVCDSISEWVTAADKKTAVDMSGGTVTVLEKVPVSKGQLKQYFYETKCNPMGYTKEGCRGIDKRHWNSQCRTTQSYVRALTMDSKKRIGWRFIRIDTSCVCTLTIKRGR
B2 gave a rat spiral ganglion neuron survival relative to 1 nM NT-3 (100%) [4] of 92%, an EC50 of p-ERK response in HEK293 cells expressing human TrkB (AlphaLisa) [5] of 0.3 nM and a Maximal Effect % of p-ERK response in HEK293 cells expressing human TrkB (relative to 10 nM BDNF) [5] of 100%.
